Data reported in patent US20150025225A1 (SHIONOGI, published 2015).
Where a chain is given by its changes, count along the chain named. Like-named read-outs stand apart in the source and are kept apart here. Values belong to the binder of their own block, whether it stands above or below them.

Legend:
rabbit EL-C2 tag [1] = target: T1, rabbit EL-C2 tag (rabbit); test: ELISA-type titration, A450 against antibody concentration; protocol not described in the text
T1 construct: used as cell lysate or heparin extract; also called rabbit EL lysate; rabbit EL enzyme solution
T1 chain: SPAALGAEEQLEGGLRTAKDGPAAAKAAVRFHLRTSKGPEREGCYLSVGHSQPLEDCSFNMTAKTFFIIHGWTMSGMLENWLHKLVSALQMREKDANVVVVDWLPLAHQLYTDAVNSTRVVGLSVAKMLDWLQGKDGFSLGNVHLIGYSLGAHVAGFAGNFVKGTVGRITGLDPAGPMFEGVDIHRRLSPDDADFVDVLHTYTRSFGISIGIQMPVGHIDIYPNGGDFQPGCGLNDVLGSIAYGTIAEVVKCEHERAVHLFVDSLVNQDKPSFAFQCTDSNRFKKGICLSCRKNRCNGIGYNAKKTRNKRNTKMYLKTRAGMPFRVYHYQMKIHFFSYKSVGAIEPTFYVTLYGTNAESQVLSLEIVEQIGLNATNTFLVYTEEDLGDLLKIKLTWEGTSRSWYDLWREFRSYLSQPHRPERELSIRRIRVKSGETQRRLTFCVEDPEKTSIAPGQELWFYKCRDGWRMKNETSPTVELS

[2] = target: T2, cynomolgus monkey EL-C2 tag (cynomolgus monkey, UniProt Q9Y5X9 21-500 (human entry), limits assumed); test: as above
T2 construct: used as heparin extract of transfected HEK293F cells; also called cynomolgus EL
T2 chain: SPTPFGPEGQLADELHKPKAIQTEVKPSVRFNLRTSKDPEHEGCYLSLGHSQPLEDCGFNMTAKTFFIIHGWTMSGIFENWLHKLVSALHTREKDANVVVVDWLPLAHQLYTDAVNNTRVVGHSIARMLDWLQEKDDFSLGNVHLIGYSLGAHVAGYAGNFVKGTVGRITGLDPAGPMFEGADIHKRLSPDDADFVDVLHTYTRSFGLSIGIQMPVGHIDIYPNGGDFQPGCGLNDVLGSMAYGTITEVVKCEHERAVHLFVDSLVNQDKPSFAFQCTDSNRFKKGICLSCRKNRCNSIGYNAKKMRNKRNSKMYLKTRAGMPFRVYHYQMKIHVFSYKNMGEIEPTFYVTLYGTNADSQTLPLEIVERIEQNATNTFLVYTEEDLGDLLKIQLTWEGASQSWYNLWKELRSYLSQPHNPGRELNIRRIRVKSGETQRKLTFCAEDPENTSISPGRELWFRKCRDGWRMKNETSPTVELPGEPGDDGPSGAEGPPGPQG

Baboon EL-C2 tag [3] = target: T3, Baboon EL-C2 tag (baboon, UniProt Q9Y5X9 21-500 (human entry), limits assumed); test: as above
T3 construct: used as heparin extract of transfected HEK293F cells; also called baboon EL heparin extract
T3 chain: T2 chain with A12E, G141E

[4] = target: T2, cynomolgus monkey EL-C2 tag; test: Biacore SPR; EL heparin extract captured by anti-C2-tag antibody on CM5, antibody as analyte, bivalent fit
Description: (§1) The binding affinities of anti-EL antibodies were measured using Biacore. Anti-C2-tag antibody was immobilized on a sensor chip CM5 (GE HealthCare) using amine-coupling and baboon EL heparin extract or cynomolgus monkey heparin extract diluted with HBS-P (GE Healthcare) was added and EL were captured on the sensor chip. Then anti-EL antibodies diluted with HBS-P were added and the binding affinities were calculated by bivalent fitting of BIAevaluation software (FIG. 9A-G).

Baboon EL-C2 tag [5] = target: T3, Baboon EL-C2 tag; test: as above
Description: as §1

[6] = target: T2, cynomolgus monkey EL-C2 tag; test: Biacore SPR; EL captured by anti-C2-tag antibody, antibody as analyte, bivalent fit; column head prints nM, kd/ka gives M
Description: as §1

Baboon EL-C2 tag [7] = target: T3, Baboon EL-C2 tag; test: as above
Description: as §1

rabbit EL-C2 tag [8] = target: T1, rabbit EL-C2 tag; test: cell-based or functional assay
[9] = target: T2, cynomolgus monkey EL-C2 tag; test: cell-based or functional assay
Baboon EL-C2 tag [10] = target: T3, Baboon EL-C2 tag; test: cell-based or functional assay
[11] = target: T4, human EL-411-459 fragment (human); test: sandwich ELISA with human EL fragment lysate, as Example 10
T4 construct: Used as HEK293 lysate
T4 chain: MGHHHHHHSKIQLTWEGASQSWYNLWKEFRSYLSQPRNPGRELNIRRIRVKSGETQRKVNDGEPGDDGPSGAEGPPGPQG

rabbit EL-C2 tag [12] = target: T1, rabbit EL-C2 tag; test: ELISA-type titration, A450 against antibody concentration; protocol not described in the text
[13] = target: T2, cynomolgus monkey EL-C2 tag; test: as above
[14] = target: T5, human EL[331-459]-mouse EL-C2 tag (human/mouse chimera, UniProt Q9WVG5 21-500 (mouse entry)); test: as above
T5 construct: used as heparin extract of transfected HEK293F cells; also called human-mouse chimera EL; Human-Mouse chimeric EL
T5 chain: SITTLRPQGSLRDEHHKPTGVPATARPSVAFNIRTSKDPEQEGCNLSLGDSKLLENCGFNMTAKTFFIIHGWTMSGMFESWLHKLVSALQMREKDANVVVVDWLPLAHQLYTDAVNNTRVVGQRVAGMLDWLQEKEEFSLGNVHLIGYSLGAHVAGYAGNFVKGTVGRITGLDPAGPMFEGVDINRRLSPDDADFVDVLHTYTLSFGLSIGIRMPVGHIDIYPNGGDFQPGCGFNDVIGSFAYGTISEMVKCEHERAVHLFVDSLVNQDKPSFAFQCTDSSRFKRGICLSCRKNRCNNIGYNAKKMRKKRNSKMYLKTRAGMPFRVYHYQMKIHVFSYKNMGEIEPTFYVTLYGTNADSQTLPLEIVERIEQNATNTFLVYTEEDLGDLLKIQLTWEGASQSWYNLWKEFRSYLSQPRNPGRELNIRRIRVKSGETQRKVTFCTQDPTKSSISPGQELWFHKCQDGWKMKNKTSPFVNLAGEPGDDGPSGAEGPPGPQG

Baboon EL-C2 tag [15] = target: T3, Baboon EL-C2 tag; test: as above
[16] = target: T5, human EL[331-459]-mouse EL-C2 tag; test: cell-based or functional assay
rabbit EL-C2 tag [17] = target: T1, rabbit EL-C2 tag; test: ELISA-type titration, A450 against antibody concentration; protocol not described in the text
[18] = target: T2, cynomolgus monkey EL-C2 tag; test: as above
rabbit EL-C2 tag [19] = target: T1, rabbit EL-C2 tag; test: as above
[20] = target: T2, cynomolgus monkey EL-C2 tag; test: as above
[21] = target: T5, human EL[331-459]-mouse EL-C2 tag; test: as above
Baboon EL-C2 tag [22] = target: T3, Baboon EL-C2 tag; test: as above

EC50 (read off the curve) (rabbit EL-C2 tag [1]): ~10 ng/mL | EC50 (read off the curve) [2]: ~5 ng/mL | EC50 (read off the curve) (Baboon EL-C2 tag [3]): ~10 ng/mL | koff [4]: 0.00014 s⁻¹ | kon [4]: 140000 M⁻¹ s⁻¹ | koff (Baboon EL-C2 tag [5]): 0.00021 s⁻¹ | kon (Baboon EL-C2 tag [5]): 140000 M⁻¹ s⁻¹ | Kd [6]: 1 nM | Kd (Baboon EL-C2 tag [7]): ~1.5 nM | Neutralizing activity_IC50 (rabbit EL-C2 tag [8]): 98 nM | Neutralizing activity_IC50 [9]: 3 nM | Neutralizing activity_IC50 (Baboon EL-C2 tag [10]): 4.8 nM
B1: 8F5 antibody (antibody, IgG2a, V domains shown)
VH: QVTLKESGPGILQPSQTLSLTCSFSGFSLSTSNMGVGWIRQPSGKGLEWLAHIWWNDYKYYNTALKSRLTISKDTSNNQVFLKIASLDTADTATYYCARIGGGTPLDYWGQGTSLTVSS
VL: DIQMAQSPSSLSASLGGKVTITCKASQDIHTYIAWYQHKPGKGPRLLMLYTSTLQPGIPSRFSGSGSGRDYSFSISNLEPEDIATYYCLQYDDLLWTFGGGTKLEIK

koff [4]: 9.4e-05 s⁻¹ | kon [4]: 160000 M⁻¹ s⁻¹ | koff (Baboon EL-C2 tag [5]): 0.00016 s⁻¹ | kon (Baboon EL-C2 tag [5]): 250000 M⁻¹ s⁻¹ | binding result [11]: no binding | EC50 (read off the curve) (rabbit EL-C2 tag [12]): ~10 ng/mL | EC50 (read off the curve) [13]: ~7 ng/mL | EC50 (read off the curve) [14]: ~20 ng/mL | EC50 (read off the curve) (Baboon EL-C2 tag [15]): ~20 ng/mL | Kd [6]: 0.59 nM | Kd (Baboon EL-C2 tag [7]): 0.64 nM | Neutralizing activity_IC50 (rabbit EL-C2 tag [8]): 85 nM | Neutralizing activity_IC50 [9]: 4.2 nM | Neutralizing activity_IC50 [16]: 6.9 nM | Neutralizing activity_IC50 (Baboon EL-C2 tag [10]): 5.7 nM
B2: 25E4 antibody (antibody, IgG2b, V domains shown)
VH: QVALKESGPGILQPSQTLSLTCSFSGFSLSTSGMGVGWIRQPSGKGLEWLAHIWWHGNKYYSTALKSRLTISKDTSNNQVFLKIASVDTADTATYYCARISDGYPLDYWGQGTSVTVSS
VL: DIQMTQSPSSLSASLGGKVTITCKASQDINKYIVWYQQKPGKGPRLLIHYTSTLQPGFPSRFSGSGSGRDYSLSITNLEPEDIATYYCLQYDNLLWTFGGGTKLEIK

EC50 (read off the curve) (rabbit EL-C2 tag [17]): ~40 ng/mL | EC50 (read off the curve) [18]: ~20 ng/mL | koff [4]: 0.00039 s⁻¹ | kon [4]: 140000 M⁻¹ s⁻¹ | koff (Baboon EL-C2 tag [5]): 0.00012 s⁻¹ | kon (Baboon EL-C2 tag [5]): 120000 M⁻¹ s⁻¹ | binding result [11]: binds | Kd [6]: 2.8 nM | Kd (Baboon EL-C2 tag [7]): 1 nM | Neutralizing activity_IC50 (rabbit EL-C2 tag [8]): 69 nM | Neutralizing activity_IC50 [9]: 6.2 nM | Neutralizing activity_IC50 [16]: 6.1 nM | Neutralizing activity_IC50 (Baboon EL-C2 tag [10]): 6.2 nM
B3: 16A11 antibody (antibody, IgG1, V domains shown)
VH: QVTLKESGPGILQPSQTLSLTCSFSGFSLSTSGMGVGWVRQPSGKGLEWLAHIWWNDYYYYKTALKSRLTISKDTSNNQVFLKIASVDTVDTATYYCARMAPGTPFPSWGQGTLVTVSA
VL: B1 VL with A5T, H30N, T31R, M48I, L49H, D93I

koff [4]: 9.9e-05 s⁻¹ | kon [4]: 180000 M⁻¹ s⁻¹ | koff (Baboon EL-C2 tag [5]): 0.00014 s⁻¹ | kon (Baboon EL-C2 tag [5]): 93000 M⁻¹ s⁻¹ | binding result [11]: binds | Kd [6]: 0.55 nM | Kd (Baboon EL-C2 tag [7]): 1.5 nM | Neutralizing activity_IC50 (rabbit EL-C2 tag [8]): 207 nM | Neutralizing activity_IC50 [9]: 6.2 nM | Neutralizing activity_IC50 [16]: 18 nM | Neutralizing activity_IC50 (Baboon EL-C2 tag [10]): 6.6 nM | EC50 (read off the curve) (rabbit EL-C2 tag [19]): ~20 ng/mL | EC50 (read off the curve) [20]: ~6 ng/mL | EC50 (read off the curve) [21]: ~30 ng/mL | EC50 (read off the curve) (Baboon EL-C2 tag [22]): ~20 ng/mL
B4: 3B1 antibody (antibody, IgG1, V domains shown)
VH: QVTLKESGPGILQPSQTLSLTCSFSGFSLSTSGVGVGWIRQPSGKGLEWLAHIWWNDNKYYNTALKSRLTISKDTSNNQVFLKIASVDTADTATYFCARSYDGYPFDYWGQGTLVTVSA
VL: B2 VL with Q38H, Y50H, F58I, G64E, L73F, T76S, T85S, N93T, K107R
